From patent US20260083845A1 (CELLICURE, published 2026)

B1: CAR2-GFP fusion (NKG2D CAR: anti-CD19 ScFv-CD8 hinge-NKG2D TM-2B4 ICD-CD3zeta, fused to GFP) (receptor)
chain: EVKLQQSGAELVRPGSSVKISCKASGYAFSSYWMNWVKQRPGQGLEWIGQIYPGDGDTNYNGKFKGQATLTADKSSSTAYMQLSGLTSEDSAVYFCARKTISSVVDFYFDYWGQGTTVTVSSGGGGSGGGGSGGGGSDIELTQSPKFMSTSVGDRVSVTCKASQNVGTNVAWYQQKPGQSPKPLIYSATYRNSGVPDRFTGSGSGTDFTLTITNVQSKDLADYFCQQYNRYPYTSGGGTKLEIKPAKPTTTPAPRPPTPAPTIASQPLSLRPEACRPAAGGAVHTRGLDFACDPFFFCCFIAVAMGIRFIIMVTWRRKRKEKQSETSPKEFLTIYEDVKDLKTRRNHEQEQTFPGGGSTIYSMIQSQSSAPTSQEPAYTLYSLIQPSRKSGSRKRNHSPSFNSTIYEVIGKSQPKAQNPARLSRKELENFDVYSSFGLLDPKLCYLLDGILFIYGVILTALFLRVKFSRSADAPAYQQGQNQLYNELNLGRREEYDVLDKRRGRDPEMGGKPRRKNPQEGLYNELQKDKMAEAYSEIGMKGERRRGKGHDGLYQGLSTATKDTYDALHMQALPPR
notes: Expressed in NK cells for the Duolink PLA; not shown: GFP
B2: DNAX-Activation Protein 10 (DAP10) (other, human, UniProt Q9UBK5 19-93, looked up)
chain: QTTPGERSSLPAFYPGTSGSCSGCGSLSLPLLAGLVAADAVASLLIVGAVFLCARPRRSPAQEDGKVYINMPGRG
notes: whole, on cells; Endogenous DAP10 of the NK cells, detected with anti-DAP10 (mouse IgG) in the PLA

Key:
[1] = target: B2; assay: Duolink proximity ligation assay (anti-GFP + anti-DAP10) in NK cells stimulated by 293T-CD19-MICA, confocal microscopy
Protocol: (§1) PLA assays were performed using the in situ Duolink PLA red kit (Sigma-Aldrich) according to the manufacturer's instructions. The CAR0, an empty vector with GFP expression, or CAR2-GFP fusion expressing NK cells were attached to the poly-l-lysine glass, target cells were then added and incubated at 37° C. for 30 minutes. Unattached cells were removed by washing with PBS. slides were fixed and stained with anti-GFP (Rabbit IgG) and anti-DAP10 (Mouse IgG), washed, and stained with anti-rabbit and anti-mouse PLA probes, followed by probe DNA ligation, amplification, Fluorescent staining were then performed and observed using confocal microscopy,
(§2) NKG2D receptor has no intracellular signaling domain, it recruits adaptor DNAX-Activation Protein 10 (DAP10) to transfer signals via YxxM motif (Eagle et al. (2009) Beyond Stressed Self: Evidence for NKG2D Ligand Expression on Healthy Cells. Curr Immunol Rev. 5(1):22-34). […] DAP10 was recruited to the CAR2 effectively stimulating by CD19.

[2] = target: T1, NKG2D (natural receptor on NK cells) (human, UniProt P26718 1-216); assay: Duolink proximity ligation assay NKG2D+DAP10, counted PLA signals, CAR-NK cells stimulated by 293T-MICA
T1 construct: whole, on cells; also called NKG2D receptors; natural NKG2D
T1 sequence (looked up): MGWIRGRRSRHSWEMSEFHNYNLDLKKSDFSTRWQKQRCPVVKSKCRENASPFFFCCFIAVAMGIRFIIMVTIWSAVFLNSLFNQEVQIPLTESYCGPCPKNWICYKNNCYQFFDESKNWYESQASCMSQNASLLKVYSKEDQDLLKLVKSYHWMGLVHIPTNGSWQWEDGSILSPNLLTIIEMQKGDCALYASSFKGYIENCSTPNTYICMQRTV

NKG2D-GFP = target: T2, NKG2D-GFP (human, UniProt P26718 1-216); assay: Duolink proximity ligation assay (anti-GFP + anti-DAP10) in NKG2D-GFP expressing NK cells with CAR0 or CAR2, stimulated by 293T-CD19-MICA, confocal microscopy
T2 construct: whole, on cells; NKG2D-GFP expressed in NK cells for the PLA between GFP and DAP10; also called natural NKG2D; not shown: GFP
T2 sequence (looked up): T1 sequence (looked up)
Protocol: as §1, §2

Binder | binding result [1] | binding result [2] | binding result (NKG2D-GFP)
B1 | binds |  | 
B2 |  | binds | binds
